This is an account of results in PMC2952587, “Identification of the Essential Brucella melitensis Porin Omp2b as a Suppressor of Bax-Induced Cell Death in Yeast in a Genome-Wide Screening” (PLoS ONE, 2010).

The data set deals with the molecule itself. Briefly: semi-denaturing gel with Western blot. In general terms: Immunoblotting shows a protein as a band on a membrane.

B1: Brucella melitensis porin Omp2b (natural protein)
chain: ADAIVAPEPEAVEYVRVCDAYGAGYFYIPGTEICLRVHGYVRYDVKGGDDVYSGTDRNGWDKGARFALRVSTGSETELGTLKTFTELRFNYAANNSGVDGKYGNETSSGTVMEFAYIQLGGLRVGIDESEFHTFTGYLGDVINDDVISAGSYRTGKISYTFTGGNGFSAVIALEQGGDNDGGYTGTTNYHIDGYMPDVVGGLKYAGGWGSIAGVVAYDSVIEEWAAKVRGDVNITDQFSVWLQGAYSSAATPDQNYGQWGGDWAVWGGLKYQATQKAAFNLQAAHDDWGKTAVTANVAYELVPGFTVTPEVSYTKFGGEWKNTVAEDNAWGGIVRFQRSF
notes: also called BMEI1305
The stoichiometry N is the number of molecules, sites or subunits per partner or assembly. Turning to B1, the “stoichiometry N” value stood at 3.
